Article PMC5464891, “Utilizing combinatorial engineering to develop Tie2 targeting antagonistic angiopoetin-2 ligands as candidates for anti-angiogenesis therapy” (Oncotarget, 2017)

B1: Ang2-BDWT, soluble (domain or fragment, human, UniProt O15123 281-496, looked up)
chain: FRDCAEVFKSGHTTNGIYTLTFPNSTEEIKAYCDMEAGGGGWTIIQRREDGSVDFQRTWKEYKVGFGNPSGEYWLGNEFVSQLTNQQRYVLKIHLKDWEGNEAYSLYEHFYLSSEELNYRIHLKGLTGTAGKISSISQPGNDFSTKDGDNDKCICKCSQMLTGGWWFDACGPSNLNGMYYPQRQNTNKFNGIKWYYWKGSGYSLKATTMMIRPADF
notes: N-linked carbohydrates removed with Endo Hf; also called wild-type Ang2-BD; parental Ang2-BD; source: Pichia pastoris GS115, purified from culture supernatant (HisTrap, Endo Hf treatment, Superdex 75); not shown: FLAG, N-terminal, kept

Tests used:
[1] = target: Ang2-BD_(C1.70), yeast-displayed (human) (UniProt O15123); assay: flow cytometry on cells; Ang2-BD displayed on yeast, soluble Tie2-Fc in 20 mM Hepes pH 7.0, 150 mM NaCl, 1% BSA, 1 h at room temperature; detected with anti-human Fc FITC; binding MFI divided by expression MFI (c-Myc) and normalized to Ang2-BDWT
[2] = target: Ang2-BD_(C2.36), yeast-displayed (human) (UniProt O15123); assay: as above
[3] = target: T1, rhTie2 extracellular domain (human, UniProt Q02763 23-748); assay: SPR; ProteOn XPR36, rhTie2 extracellular domain amine-coupled to a GLC chip (2100 RU), Ang2-BD variants as analytes, 25°C, 20 mM Hepes pH 7.0, 150 mM NaCl, 1 mM CaCl2; steady state for Ang2-BDWT, two-state model for the variants; conditions: both partners purified
T1 construct: receptor tyrosine kinase Tie2, recombinant human, extracellular domain; also called immobilized Tie2; recombinant soluble Tie2; source: bought: Sino Biological Inc
T1 sequence (Q02763 23-748): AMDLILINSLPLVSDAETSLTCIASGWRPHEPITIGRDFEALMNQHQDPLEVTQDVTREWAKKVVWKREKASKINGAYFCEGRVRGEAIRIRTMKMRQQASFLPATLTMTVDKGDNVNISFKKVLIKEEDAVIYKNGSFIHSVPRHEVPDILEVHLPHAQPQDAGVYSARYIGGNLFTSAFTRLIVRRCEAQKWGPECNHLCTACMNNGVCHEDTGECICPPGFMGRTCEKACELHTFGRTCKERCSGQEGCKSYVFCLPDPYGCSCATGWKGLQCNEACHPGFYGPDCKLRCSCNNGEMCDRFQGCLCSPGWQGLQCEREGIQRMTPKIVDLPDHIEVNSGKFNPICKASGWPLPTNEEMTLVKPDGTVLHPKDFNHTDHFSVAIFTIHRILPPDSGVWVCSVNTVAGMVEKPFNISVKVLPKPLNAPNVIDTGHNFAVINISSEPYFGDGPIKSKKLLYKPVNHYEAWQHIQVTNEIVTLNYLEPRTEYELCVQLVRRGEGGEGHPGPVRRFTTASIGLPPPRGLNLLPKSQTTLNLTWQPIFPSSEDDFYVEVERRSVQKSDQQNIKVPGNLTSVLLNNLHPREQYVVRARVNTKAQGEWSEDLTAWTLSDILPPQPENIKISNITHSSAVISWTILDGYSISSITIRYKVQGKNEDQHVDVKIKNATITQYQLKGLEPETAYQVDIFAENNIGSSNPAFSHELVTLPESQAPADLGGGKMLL

fold increase in affinity relative to Ang2-BDWT [1]	fold increase in binding affinity as compared to Ang2-BDWT [2]	Kd [3]	Molecule
2.5 fold	17 fold	–	Recombinant human Tie2 (Ala23-Lys745) Fc fusion, soluble Tie2-Fc (from UniProt Q02763 23-745)
–	–	434 nM	B1
